According to article PMC6813330:

Target: IbpS (iron-binding protein secreted), translocated region of D. dadantii IbpS (residues 28-372) (Dickeya dadantii 3937)
Experiment: SEC-MALS; Superdex S200 5/150 GL increase; 25 µl IbpS at 10 mg/ml in 50 mM Tris-Cl pH 7.0, 100 mM NaCl

## IbpS (iron-binding protein secreted), translocated region of D. dadantii IbpS (residues 28-372) (natural protein)
  stoichiometry N: 2
